Data on 34 molecules can be found in patent publication US20040170955A1 (University of Texas, published 2004).

Ends that are not written are not given here.

Sequences and labels used below:
T1: GST-β5cyto (GST fusion protein of the β5 integrin cytoplasmic domain) (UniProt P18084 743-799)
T1 construct: domain: cytoplasmic domain; Recombinant GST fusion coated on microtiter wells; also called β5-GST; β5 cytoplasmic domain fusion protein; not shown: glutathione S-transferase (GST) fusion partner
T1 sequence (looked up): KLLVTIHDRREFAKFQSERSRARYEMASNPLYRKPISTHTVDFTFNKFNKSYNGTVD

B1: Fyn-phosphorylated phage displaying … (SEQ ID NO:119) (peptide)
peptide: TMLRYFMFP
modifications: not fully specified (residue 5); also: displayed on phage
B2: Fyn-phosphorylated phage displaying … (SEQ ID NO:118) (peptide)
peptide: TMLRYTVRL
modifications: not fully specified (residue 5); also: displayed on phage
B3: Fyn-phosphorylated phage displaying … (SEQ ID NO:120) (peptide)
peptide: TLRKYFHSS
modifications: not fully specified (residue 5); also: displayed on phage
B4: phage displaying CKEDGWLMTC (SEQ ID NO:107) (peptide)
peptide: CKEDGWLMTC
notes: whole phage tested
B5: phage displaying VVISYSMPD (SEQ ID NO:112) (peptide)
peptide: VVISYSMPD
notes: whole phage tested
B6: phage displaying DEEGYYMMR (SEQ ID NO:110) (peptide)
peptide: DEEGYYMMR
notes: whole phage tested
B7: phage displaying CEPYWDGWFC (SEQ ID NO:106) (peptide)
peptide: CEPYWDGWFC
modifications: cysteine pairing not given here; also: displayed on phage
notes: whole phage tested
B8: phage displaying SDWYYPWSW (SEQ ID NO:113) (peptide)
peptide: SDWYYPWSW
notes: whole phage tested; Selected on β5
B9: phage displaying CWDQNYLDDC (SEQ ID NO:109) (peptide)
peptide: CWDQNYLDDC
notes: whole phage tested
B10: phage displaying CYIWPDSGLC (SEQ ID NO:105) (peptide)
peptide: CYIWPDSGLC
modifications: cysteine pairing not given here; also: displayed on phage
notes: whole phage tested
B11: phage displaying KQFSYRYLL (SEQ ID NO:111) (peptide)
peptide: KQFSYRYLL
notes: whole phage tested
B12: phage displaying … (SEQ ID NO:101) (peptide)
peptide: AGWLYMSWK
B13: phage displaying DWFSYYEL (SEQ ID NO:114) (peptide)
peptide: DWFSYYEL
B14: phage displaying … (SEQ ID NO:108) (peptide)
peptide: CKLWQEDGY
B15: Fyn-phosphorylated phage displaying … (SEQ ID NO:117) (peptide)
peptide: MLLGYRFEK
modifications: not fully specified (residue 5); also: displayed on phage
B16: Fyn-phosphorylated phage displaying … (SEQ ID NO:115) (peptide)
peptide: GGGSYRHVE
modifications: not fully specified (residue 5); also: displayed on phage
B17: phage displaying CSMMCLEGCDDWC (SEQ ID NO:131) (peptide)
peptide: CSMMCLEGCDDWC
notes: one of the other phage selected in round 2
B18: phage displaying CAVACWADCQLGC (SEQ ID NO:129) (peptide)
peptide: CAVACWADCQLGC
notes: as for B17
B19: phage displaying CGTGCAVECEVVC (SEQ ID NO:128) (peptide)
peptide: CGTGCAVECEVVC
notes: whole phage tested
B20: phage displaying CSGLCTVQCLEGC (SEQ ID NO:130) (peptide)
peptide: CSGLCTVQCLEGC
notes: as for B17
B21: phage displaying SDNRYIGSW (SEQ ID NO:97) (peptide)
peptide: SDNRYIGSW
notes: whole phage tested
B22: phage displaying CEQRQTQEGC (SEQ ID NO:93) (peptide)
peptide: CEQRQTQEGC
modifications: cysteine pairing not given here; also: displayed on phage
notes: whole phage tested
B23: phage displaying CNLSSEQC (SEQ ID NO:103) (peptide)
peptide: CNLSSEQC
modifications: cysteine pairing not given here; also: displayed on phage
notes: whole phage tested
B24: phage displaying CFQNRC (SEQ ID NO:102) (peptide)
peptide: CFQNRC
modifications: cysteine pairing not given here; also: displayed on phage
notes: whole phage tested
B25: phage displaying KVSWYLDNG (SEQ ID NO:99) (peptide)
peptide: KVSWYLDNG
notes: whole phage tested
B26: phage displaying CARLEVLLPC (SEQ ID NO:94) (peptide)
peptide: CARLEVLLPC
modifications: cysteine pairing not given here; also: displayed on phage
notes: whole phage tested
B27: phage displaying YEWWYWSWA (SEQ ID NO:98) (peptide)
peptide: YEWWYWSWA
notes: whole phage tested
B28: phage displaying SDWYYPWSW (SEQ ID NO:100) (peptide)
peptide: SDWYYPWSW
notes: whole phage tested; Selected on β3
B29: phage displaying YDWWYPWSW (SEQ ID NO:95) (peptide)
peptide: YDWWYPWSW
notes: whole phage tested
B30: phage displaying CLRQSYSYNC (SEQ ID NO:104) (peptide)
peptide: CLRQSYSYNC
modifications: cysteine pairing not given here; also: displayed on phage
notes: whole phage tested
B31: phage displaying GLDTYRGSP (SEQ ID NO:96) (peptide)
peptide: GLDTYRGSP
notes: whole phage tested
B32: phage displaying CPKVCPRECESNC (SEQ ID NO:127) (peptide)
peptide: CPKVCPRECESNC
notes: whole phage tested
B33: phage displaying CLGQCASICVNDC (SEQ ID NO:126) (peptide)
peptide: CLGQCASICVNDC
notes: whole phage tested
B34: phage displaying CYNLCIRECESICGADGACWTWCADGCSRSC (SEQ ID NO:125) (peptide)
peptide: CYNLCIRECESICGADGACWTWCADGCSRSC
notes: whole phage tested; also called tandem phage

T2 sequence (Q07075 whole entry): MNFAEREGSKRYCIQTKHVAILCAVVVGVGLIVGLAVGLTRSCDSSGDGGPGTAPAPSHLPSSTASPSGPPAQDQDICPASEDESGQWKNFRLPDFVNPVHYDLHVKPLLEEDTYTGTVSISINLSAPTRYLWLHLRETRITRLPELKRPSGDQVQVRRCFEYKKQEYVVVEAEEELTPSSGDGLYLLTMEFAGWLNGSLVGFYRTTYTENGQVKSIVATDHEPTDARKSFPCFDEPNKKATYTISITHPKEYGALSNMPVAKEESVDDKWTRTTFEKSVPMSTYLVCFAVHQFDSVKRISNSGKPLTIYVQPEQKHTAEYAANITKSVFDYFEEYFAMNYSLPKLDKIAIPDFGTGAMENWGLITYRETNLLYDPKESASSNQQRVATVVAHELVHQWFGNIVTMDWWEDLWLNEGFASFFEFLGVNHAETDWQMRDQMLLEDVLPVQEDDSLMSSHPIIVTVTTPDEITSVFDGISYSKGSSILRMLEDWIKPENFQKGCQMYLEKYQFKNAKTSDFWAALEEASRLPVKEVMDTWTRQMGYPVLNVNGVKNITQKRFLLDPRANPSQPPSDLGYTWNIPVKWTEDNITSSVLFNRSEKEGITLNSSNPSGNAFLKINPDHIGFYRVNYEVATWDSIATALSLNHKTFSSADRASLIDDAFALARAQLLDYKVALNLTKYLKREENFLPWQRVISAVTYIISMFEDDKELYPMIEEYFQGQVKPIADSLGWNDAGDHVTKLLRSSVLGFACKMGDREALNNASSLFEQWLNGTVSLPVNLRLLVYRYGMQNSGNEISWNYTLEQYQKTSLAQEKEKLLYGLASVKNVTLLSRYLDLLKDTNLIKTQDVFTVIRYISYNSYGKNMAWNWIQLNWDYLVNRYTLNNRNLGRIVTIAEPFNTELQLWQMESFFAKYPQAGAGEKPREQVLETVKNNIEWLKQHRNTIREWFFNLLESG

The target in one experiment is GST-β5cyto (GST fusion protein of the β5 integrin cytoplasmic domain) (UniProt P18084). As to the kind of experiment: phage binding to β5, colonies with Fyn-phosphorylated phage / unphosphorylated phage.
B1 yielded a Phos/Unphos of 4.2. Regarding B2, the Phos/Unphos was 14.3.

B3: the Phos/Unphos is 3.8.

A further experiment has the same target. The experiment is described as follows: phosphorylated phage binding, β5 colonies / GST colonies.
Take B1: the β3 or β5/GST amounted to 2.3. With B2, the β3 or β5/GST was determined as 3.4. On the same count and under the same terms, the same measure for B3: 3.8.

A further experiment concerns the target T1, GST-β5cyto (GST fusion protein of the …). As to the kind of experiment: phage binding, colonies from β5-GST wells / BSA wells. The text has this: (§1) β3 and β5 cytoplasmic domain-binding peptides were isolated by screening multiple phage libraries with recombinant GST fusion proteins that contained either GST-β3cyto or GST-β5cyto coated onto microtiter wells. Immobilized GST was used as a negative control for enrichment during the panning of each cytoplasmic domain. Phage were sequenced from randomly selected clones after three rounds of panning as disclosed elsewhere (Koivunen et al., 1995; Pasqualini et al., 1995). […] Randomly selected clones from panning rounds II and III were sequenced. Amino acid sequences of the phagemid encoded peptides were deduced from nucleotide sequences. The ratios were calculated by dividing the number of colonies recovered from β3-GST-coated wells and those recovered from GST or BSA.
Turning to B4, the “β5/BSA Ratio” value was found to be 836 ratio. With B5, the “β5/BSA Ratio” value came to 28 ratio. Same read-out and setting: to B6 belongs 29 ratio.

Consider B7, for which the “β5/BSA Ratio” value came to 400 ratio.

With B8, the “β5/BSA Ratio” value came out at 304 ratio. As for B9, the “β5/BSA Ratio” value is 100 ratio.

With B10, the “β5/BSA Ratio” value was determined as 193 ratio.

For the molecule B11, the “β5/BSA Ratio” value came out at 8 ratio.

A further experiment addresses GST-β3cyto (GST fusion protein of the β3 integrin cytoplasmic domain) (UniProt P05106). The experiment is described as follows: phage binding, colonies from β3-GST wells / GST wells.
Turning to B12, the β3/GST Ratio was 1.8.

For the next experiment, the target named is GST-β5cyto (GST fusion protein of the β5 integrin cytoplasmic domain) (UniProt P18084). The experiment is described as follows: phage binding, colonies from β5-GST wells / GST wells.
In the case of B13, the β5/GST Ratio amounted to 1.7. In the case of B14, the β5/GST Ratio came out at 1.8.

In another experiment the target is GST-β3cyto (GST fusion protein of the β3 integrin cytoplasmic domain) (UniProt P05106). The experiment is described as follows: phage binding to β3, colonies with Fyn-phosphorylated phage / unphosphorylated phage.
Sequence of GST-β3cyto (GST fusion protein of the β3 integrin cytoplasmic domain) (UniProt P05106) (P05106 742-788): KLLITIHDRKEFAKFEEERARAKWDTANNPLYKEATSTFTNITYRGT
Take B15: the Phos/Unphos was 2.5. For the molecule B16, the Phos/Unphos was 13.2.

The next experiment concerns the target T2, Aminopeptidase A (APA, EC 3.4.11.7) on SK-RC-49/APA cells (UniProt Q07075 1-957, limits assumed).
T2 construct: whole, on cells
As to the kind of experiment: phage binding to SK-RC-49/APA cells against SK-RC-49 parental cells.
In the case of B17, the binding result is “no binding”. For B18, the binding result is “no binding”.

With B19, the binding result is reported as “no binding”. With B20, the binding result is “no binding”.

The target of a further experiment is T3, GST-β3cyto (GST fusion protein of the β3 integrin cytoplasmic domain) (UniProt P05106 742-788).
T3 construct: domain: cytoplasmic domain; Recombinant GST fusion coated on microtiter wells; also called β3-GST; β3 cytoplasmic domain fusion protein; not shown: glutathione S-transferase (GST) fusion partner
T3 sequence (P05106 742-788): as above
The experiment is described as follows: phage binding, colonies from β3-GST wells / GST wells.
Description: as §1
Regarding B21, the “β3/GST Ratio” value was determined as 3.3 ratio. For B22, the “β3/GST Ratio” value was found to be 4.3 ratio.

Regarding B23, the “β3/GST Ratio” value is 2.7 ratio.

B24: the “β3/GST Ratio” value was determined as 3.1 ratio. Still for that read-out and setting: to B25 belongs 2.1 ratio; to B26, 2.8 ratio; to B27, 2.2 ratio.

Regarding B28, the “β3/GST Ratio” value stood at 2.1 ratio.

For the molecule B29, the “β3/GST Ratio” value came to 5.6 ratio. The same measure, in the same setting: the same measure for B30: 2.4 ratio. B31: the “β3/GST Ratio” value was determined as 4.1 ratio.

The target of the next experiment is GST-β3cyto (GST fusion protein of the β3 integrin cytoplasmic domain) (UniProt P05106). As to the kind of experiment: phosphorylated phage binding, β3 colonies / GST colonies.
Turning to B15, the β3 or β5/GST turned out to be 3.5. B16 showed a β3 or β5/GST of 1.5.

The next experiment has as its target T3, GST-β3cyto (GST fusion protein of the …). As to the kind of experiment: phage binding, colonies from β3-GST wells / BSA wells.
Description: as §1
For the molecule B21, the “β3/BSA Ratio” value was determined as 32 ratio.

Turning to B22, the “β3/BSA Ratio” value was 14 ratio.

On to B23, for which the “β3/BSA Ratio” value came to 62 ratio. With B24, the “β3/BSA Ratio” value stood at 16 ratio. On to B25, for which the “β3/BSA Ratio” value came to 20 ratio. As to B26, the “β3/BSA Ratio” value was 18.7 ratio.

In the case of B27, the “β3/BSA Ratio” value was 28.1 ratio.

As for B28, the “β3/BSA Ratio” value came out at 157 ratio.

In the case of B29, the “β3/BSA Ratio” value was determined as 163 ratio.

For B30, the “β3/BSA Ratio” value came to 3.2 ratio.

On to B31, for which the “β3/BSA Ratio” value was 48 ratio.

A further experiment addresses GST-β5cyto (GST fusion protein of the β5 integrin cytoplasmic domain) (UniProt P18084). The experiment is described as follows: phosphorylated phage binding, β5 colonies / BSA colonies.
Regarding B1, the β3 or β5/BSA was found to be 3.8. Regarding B2, the β3 or β5/BSA came to 2.2. B3 gave a β3 or β5/BSA of 15.2.

The next experiment addresses T2, Aminopeptidase A (APA, EC 3.4.11.7) on …. The experiment is described as follows: phage binding to SK-RC-49/APA cells against parental cells (not shown).
Regarding B32, the “fold enrichment relative to SK-RC-49 parental cells” value was found to be 6 fold.

In the case of B33, the “fold enrichment relative to SK-RC-49 parental cells” value was 6 fold. Consider B34, for which the “fold enrichment relative to SK-RC-49 parental cells” value was 6 fold.

Another experiment deals with GST-β3cyto (GST fusion protein of the β3 integrin cytoplasmic domain) (UniProt P05106). As to the kind of experiment: phosphorylated phage binding, β3 colonies / BSA colonies.
On to B15, for which the β3 or β5/BSA was 2.7.

Regarding B16, the β3 or β5/BSA stood at 5.3.

In another experiment the target is T1, GST-β5cyto (GST fusion protein of the …). The experiment is described as follows: phage binding, colonies from β5-GST wells / GST wells.
Description: as §1
Take B4: the “β5/GST Ratio” value is 2.3 ratio. In the case of B5, the “β5/GST Ratio” value was found to be 3.8 ratio.

Regarding B6, the “β5/GST Ratio” value amounted to 11.5 ratio. For the molecule B7, the “β5/GST Ratio” value turned out to be 3.1 ratio. For the molecule B8, the “β5/GST Ratio” value stood at 2.4 ratio.

B9: the “β5/GST Ratio” value is 1.5 ratio. Regarding B10, the “β5/GST Ratio” value is 5.2 ratio. As to B11, the “β5/GST Ratio” value came out at 4.5 ratio.

For the next experiment, the target named is GST-β3cyto (GST fusion protein of the β3 integrin cytoplasmic domain) (UniProt P05106). As to the kind of experiment: phage binding, colonies from β3-GST wells / BSA wells.
On to B12, for which the β3/BSA Ratio came out at 2.4.

Another experiment addresses GST-β5cyto (GST fusion protein of the β5 integrin cytoplasmic domain) (UniProt P18084). The experiment is described as follows: phage binding, colonies from β5-GST wells / BSA wells.
Consider B13, for which the β5/BSA Ratio came out at 153.

In the case of B14, the β5/BSA Ratio came to 665.
